Test results published in doi:10.1101/2025.09.03.673926.
Several values for one entry are separate records, joined by “and”; a condition that tells them apart may be missing. Equal entries are not always repeated.

Experiments:
[1] = target: TgSNF2LΔHydra (aa 1 to 1556 with an internal deletion between aa 880 and 1040) (Toxoplasma gondii); experiment: mass photometry
[2] = target: TgSNF2LΔHydra (aa 1 to 1556 with an internal deletion between aa 880 and 1040) (Toxoplasma gondii); experiment: SEC-MALS
[3] = target: TgSNF2L Hydra domain (886-1057) (Toxoplasma gondii); experiment: native gel or EMSA
[4] = target: TgSNF2L Hydra domain (886-1057) (Toxoplasma gondii); experiment: mass photometry
[5] = target: TgSNF2L Hydra domain (886-1057) (Toxoplasma gondii); experiment: SEC-MALS
[6] = target: TgSNF2L (aa 1 to 1556) (Toxoplasma gondii); experiment: mass photometry
[7] = target: TgSNF2L (aa 1 to 1556) (Toxoplasma gondii); experiment: SEC-MALS

Which results are given for “TgSNF2LΔHydra (aa 1 to 1556 with an internal deletion between aa 880 and 1040) (enzyme)”?
percent of particles monomeric and dimeric [1]: 71%; percent of particles tetrameric and higher [1]: 19%; stoichiometry N [2]: 2

With “TgSNF2L Hydra domain (886-1057) (domain or fragment)” as the substance, how does the stoichiometry N [3] read?
Its stoichiometry N is 10 and 20.

And the stoichiometry N [4]?
Its stoichiometry N is 10.

And the stoichiometry N [5]?
The stoichiometry N was 10.

For TgSNF2L (aa 1 to 1556) (enzyme), which percent of particles dimeric [6] is on record?
The percent of particles dimeric was 11%.

And the percent of particles monomeric [6]?
The percent of particles monomeric was 22%.

What about the percent of particles tetrameric and bigger [6] of the same substance?
The percent of particles tetrameric and bigger was 59%.

What about the stoichiometry N [7] of the same substance?
The stoichiometry N was 4.
